Laboratory results taken from patent US20240058447A1 (INSTIL BIO UK, published 2024).
Blank lines part the entries; values can stand above or below the molecule they belong to.

Experiments:
[1] = target: membrane-bound FRα on target cells (UniProt P15328); assay: cell-based or functional assay
[2] = target: CD3 of the TCR/CD3 complex on T cells (human) (UniProt P07766); assay: cell-based or functional assay
[3] = target: T1, human histidine-tagged FRα (human, UniProt P15328 25-234); assay: surface plasmon resonance (printed 'Surface plasma resonance'); orientation not stated; FIG. 54 names human histidine-tagged FRα
T1 construct: also called folate receptor α; FOLR1; not shown: histidine tag
T1 sequence (P15328 25-234 limits assumed): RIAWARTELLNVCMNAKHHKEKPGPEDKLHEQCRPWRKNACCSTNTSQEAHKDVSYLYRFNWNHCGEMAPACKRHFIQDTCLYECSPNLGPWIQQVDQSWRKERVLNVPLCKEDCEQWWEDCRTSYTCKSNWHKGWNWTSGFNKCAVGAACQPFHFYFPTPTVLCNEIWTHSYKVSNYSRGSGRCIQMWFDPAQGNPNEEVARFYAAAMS

Chain of membrane-bound FRα on target cells (P15328 25-234 limits assumed): as above
Chain of CD3 of the TCR/CD3 complex on T cells (human) (P07766 23-207, one chain of several): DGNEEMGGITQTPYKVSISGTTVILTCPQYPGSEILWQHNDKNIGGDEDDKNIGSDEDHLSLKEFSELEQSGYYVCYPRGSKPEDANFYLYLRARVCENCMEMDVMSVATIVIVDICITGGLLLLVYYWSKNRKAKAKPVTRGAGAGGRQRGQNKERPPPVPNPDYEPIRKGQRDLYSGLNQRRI

IFNγ production of lung TIL against Ba/F3.OKT3.FRα, CoStAR-Td versus non-Td [1]: 4 fold
IFNγ production of lung TIL against autologous tumor digest, E:T 1:1, CoStAR-Td versus non-Td [1]: 6.4 fold
IFNγ production of ovarian TIL against Ba/F3.OKT3.FRα, CoStAR-Td versus non-Td [1]: 4.2 fold
IFNγ production of ovarian TIL against autologous tumor digest, E:T 1:1, CoStAR-Td versus non-Td [1]: 4.3 fold
IFNγ production of renal TIL against Ba/F3.OKT3.FRα, CoStAR-Td versus non-Td [1]: 3.1 fold
IFNγ production of renal TIL against autologous tumor digest, E:T 1:1, CoStAR-Td versus non-Td [1]: 2.4 fold
IL-2 production of lung TIL against Ba/F3.OKT3.FRα, CoStAR-Td versus non-Td [1]: 18.3 fold
IL-2 production of ovarian TIL against Ba/F3.OKT3.FRα, CoStAR-Td versus non-Td [1]: 19.9 fold
IL-2 production of renal TIL against Ba/F3.OKT3.FRα, CoStAR-Td versus non-Td [1]: 15 fold
fold expansion after a single stimulation with Ba/F3.OKT3.FRα, no exogenous IL-2, day 7 [1]: 6.7 fold
fold expansion after repeated stimulation with Ba/F3.OKT3.FRα (days 0, 7, 14, 21), no exogenous IL-2, day 35 [1]: 829 fold
fold expansion of T cells cocultured with Ba/F3.OKT3.FRα, E:T 8:1, 200 IU/mL IL-2, day 35 [1]: 198 fold
Molecule: anti-FRα CoStAR (MOV19 scFv - CD28 - CD40 costimulatory antigen receptor) on T cells or TILs
xCELLigence cytotoxicity against H508.Luc.Puro.FRα, AUC of normalized cell index over 48 h, E:T 10:1, donor 37636 TCR.CoStAR-Td T cells [1]: 91.2 AUC

Molecule: membrane-anchored OKT3 on target cells (scFv)
cytotoxicity against Ba/F3.OKT3 at E:T 1:5 after 5 days, CoStAR transduced T cells [2]: 82%
cytotoxicity against Ba/F3.OKT3 at E:T 1:5 after 5 days, non-transduced T cells [2]: 74%

Kd [3]: ~0.46 nM
B1: MOV19 monoclonal antibody (antibody, V domains shown)
VH: QVQLQQSGAELVKPGASVKISCKASGYSFTGYFMNWVKQSHGKSLEWIGRIHPYDGDTFYNQNFKDKATLTVDKSSNTAHMELLSLTSEDFAVYYCTRYDGSRAMDYWGQGTTVTVSS
VL: DIELTQSPASLAVSLGQRAIISCKASQSVSFAGTSLMHWYHQKPGQQPKLLIYRASNLEAGVPTRFSGSGSKTDFTLNIHPVEEEDAATYYCQQSREYPYTFGGGTKLEIK
notes: also called MOV19 antibody; MOV19 anti-FRα antibody
